Measured values published in patent publication US20240342244A1, “Isthmin Protein Therapeutics for the Treatment of Non-Alcoholic Fatty Liver Disease” (The Board of Trustees of the Leland Stanford Junior …, priority 2021, published 2024).

Assays:
[1] = Observation of hypoglycemia in overexpression or pharmacological administration studies; format: in vivo, mouse; conditions: overexpression or pharmacological administration of ISM1
pS6^S235/S236 = experiment: Acute and long-term signaling in AML12 hepatocytes (western blot); format: cell-based, mouse
Experimental: Western blots and molecular analyses. For western blotting, homogenized tissues or whole-cell lysates, samples were lysed in RIPA buffer containing protease inhibitor cocktail (Roche) and phosphatase inhibitor cocktail (Roche). Cell lysates were centrifuged at 14,000×g for 15 min and supernatants were prepared in 4×LDS Sample Buffer (Invitrogen) and separated by SDS-PAGE and transferred to Immobilon 0.45 μm membranes (Millipore). For Western blotting of plasma samples, 1 μl of plasma was prepared in 2× sample buffer (Invitrogen) with reducing agent, boiled, and analyzed using Western blot against indicated antibody. Protein kinase array (R&D systems ARY003B) was performed according to the manufacturers' description. All antibodies used in this paper are described in STAR methods.

human SGBS adipocytes = experiment: 2-deoxy-3H-glucose uptake in human SGBS adipocytes; format: cell-based
Experimental: Mouse and human pre-adipocytes culture and differentiation. Inguinal fat pads from 4-8 week old C57BL/6J male and female mice were dissected and mechanically digested for 10 min using spring scissors. Digested tissues were incubated in WAT isolation buffer (10 ml PBS, 2.4 U/ml dispase II (#04942078001, Roche), 10 mg/ml collagenase D (#11088858001, Roche) at 37° C. for 45 min. 20 mL growth media was added and the tissue suspension was filtered through a 100-μm cell strainer and centrifuged at 600×g for 5 min. The cell pellets were resuspended in 20 mL growth media, filtered through a 40-μm cell strainer, centrifuged at 600×g for 5 min, resuspended in 10 mL growth media, and plated in 10-cm collagen-coated dishes. The cells were cultured in growth media (DMEM/F-12 Glutamax, Thermo Fisher Scientific #10565018) supplemented with 10% fetal bovine serum. Two days post-confluency, differentiation was induced with growth media containing 1 μM rosiglitazone, 0.5 mM isobutylmethylxanthine, 1 μM dexamethasone, 5 μg/mL insulin. After two days, cells were re-fed with growth media containing 1 μM rosiglitazone and 5 μg/mL insulin. Cells were fully differentiated after 6-8 days. For ISM1 knockdown or overexpression in primary adipocytes using adenovirus, 500 μL crude virus was mixed with 500 μL fresh growth media containing 1 μM rosiglitazone and 5 μg/mL insulin was added to each well at day 2 of differentiation. At day 4, virus-containing media was removed and 500 μL fresh growth media without stimulators was added to each well. SGBS cells were differentiated as described previously (Fischer-Posovszky et al., 2008; Wabitsch et al., 2001). Briefly, cells were cultured in growth media DMEM/F-12 Glutamax, supplemented with 10% fetal bovine serum, 33 uM biotin, and 17 uM pantothenate. Two days post confluency, differentiation was induced with serum-free DMEM/F12 media containing 33 uM biotin, 17 uM pantothenate, 0.01 mg/ml transferrin, 20 nM insulin, 100 nM cortisol, 0.2 nM triiodothyronine, 25 nM dexamethasone, 0.25 mM isobutyl methylxanthine, and 2 μM rosiglitazone. After four days, cells were re-fed with growth media containing 0.01 mg/ml transferrin 20 nM insulin, 100 nM cortisol, 0.2 nM triiodothyronine. Cells were fully differentiated after day 8-10.
Glucose uptake. Glucose uptake was performed as previously described (You et al., 2017). Briefly, 2-Deoxy-d-[2,6-3H]-glucose was purchased from PerkinElmer NEN radiochemicals. Fully differentiated adipocytes were washed with KRH buffer and starved in 0.5% BSA in KRH buffer for 4 h. Indicated concentrations of insulin or ISM1 were added at indicated time points. Cells were treated with a mixture of 500 μM 2-deoxy-D-glucose and 1.71 μCimL^−1 2-Deoxy-D-[1,2-3H (N)]-glucose for another 10 min followed by three washes using ice cold KRH buffer containing 200 mM glucose. The passive glucose uptake in the presence of 50 uM CytoB was less than 12% of the total glucose uptake. Cells were solubilized in 1% SDS and radioactivity was measured by liquid scintillation counting.

AML12 hepatocytes = experiment: Protein synthesis assay (3H-leucine incorporation into proteins) in AML12 hepatocytes; format: cell-based, mouse; conditions: 24 h
Experimental: Protein synthesis Assay. AML12 hepatocytes were washed twice with warm PBS and starved in serum-free media overnight. Indicated concentrations of insulin with or without ISM1 and 0.25 uCi of [3H]-Leucine (#NET460250UC, PerkinElmer) were added at the same time. After a 24 h incubation, cells were washed three times with ice cold PBS and lysed in RIPA buffer containing protease inhibitor cocktail (Roche). After 15 min centrifugation at 14000×g, supernatants were transferred to new tubes. Trichloroacetic acid was added to the protein extracts at a final concentration of 10% and incubated on ice for 1 h. After a 15 min centrifugation at 14000×g, pellets were washed with cold acetone, diluted in 10M NaOH and transferred to scintillation vials. The radioactivity was measured by liquid scintillation counting.

B1: ISM1: recombinant mouse ISM1 protein with a C-terminal myc-his tag generated in mammalian HEK 293 Expi cells (protein, UniProt A2ATD1 30-454, looked up)
Isthmin-1: SDRQDAAAGNNNLNLESDSTSETSFPLSKEAPEEHQVVHQPFPRQRFPPETGHPSLQRDGPRSFLLDLPNFPDLSKADINGQNPNIQVTIEVVDGPDSEAEKDQHPENKPSWSLPAPDWRAWWQRSLSLARTNSGDQDDKYDSTSDDSNFLSVPRGWDRPAPGHRTFETKEQPEYDSTDGEGDWSLWSVCSVTCGNGNQKRTRSCGYACIATESRTCDRPNCPGIEDTFRTAATEVSLLAGSEEFNATKLFEVDMDSCERWMSCKSEFLKKYMHKVINDLPSCPCSYPTEVAYSTADIFDRIKRKDFRWKDASGPKEKLEIYKPTARYCIRSMLSLESTTLAAQHCCYGDNMQLITRGKGAGTPNLISTEFSAELHYKVDVLPWIICKGDWSRYNEARPPNNGQKCTESPSDEDYIKQFQEAREY
modifications: C-terminal myc-His tag
notes: recombinant mouse ISM1 protein with a C-terminal myc-his tag generated in mammalian HEK 293 Expi cells
- hypoglycemia [1]: do not observe hypoglycemia
- pS6^S235/S236 after long-term treatment (pS6^S235/S236; 24 h treatment): induces hyperactivation of pS6^S235/S236
- acute signaling added to insulin (pS6^S235/S236; insulin 1 nM up to 100 nM with 25 nM or 50 nM ISM1, 5 min): do not result in any additional signaling changes
- effect on glucose uptake relative to that of insulin (human SGBS adipocytes; SGBS cells): 50-100%
- increase in glucose uptake (human SGBS adipocytes; [3H]-2-deoxy-glucose, starting from 20 nM, 30 minutes): 1.5 fold
- concentration from which glucose uptake is increased (human SGBS adipocytes; doses ranging from 10 nM to 200 nM): 20 nM
- lipid synthesis versus protein synthesis, side-by-side (AML12 hepatocytes; 100 nM ISM1 and 50 nM insulin vs 50 nM insulin alone): suppresses lipid synthesis in favor of protein synthesis
- induction of protein synthesis (H3-leucine incorporation) (AML12 hepatocytes; combined chronic ISM1 and insulin (50 nM) treatment): 2.9 fold
